{"source": "a protein production outcome set (Wang et al. 2014)", "data": [{"assay": "label from the status in PepcDB records", "values": [{"sequence": "MTALKICLIGGSGFIGRHLAAQLASRGHRITIASRRTGLPDFRVLPSAELVSADIHDPGQLAGLIAGHDAVVSMVGILHGSRAQFEKAHAQLPEKIVDACRRQGVRRLVHVSALGAAQDAPSDYQQTKALGELAVESSGLDWTILRPSVVFGHGDAFLNMFAGLQKRLPVLPLAGAGCKMAPVWVEDVARAVCECLARKETEGRKLDLAGPETYTLAQLARLAGRASGHPRPVFGLPYGLAMLQAALMEWLPGPTLMSRDNVRSLQWDNVSDQPFPSALLGFEPAALSALAPGWLAGRDRNDTASRYRAKAAR", "protein production": "failed"}, {"sequence": "MTALRQDIDPNGLLEYSVVYTDRALNHMSKAFQEVMNDLLSNLKTVYNAEAAVIIPGSGTYGMEAVARQLTIDEDCLIIRNGWFSYRWTQILEKGKFAKSSTVLTAERTEDTEAPKPFAPVDIETAVAKIKEDKSAIVYAPHVETSSGIILSEEYIKALSEAVHSVGGLLVIDCIASGCVWLDMKELGIDVLISAPQKGWSSTPCAGLVMLSAAAIKKVESTESNCFSLDLKQWLTIMRAYENGGHAYHATMPTDSLRQFRDAILEAKEIGFDILRDAQWELGNRVRKVLTDKGIESVAAEGFEAPGVVVSYTERDDMHKGSAFAEAGLQIAAGVPLKVGEPDNFKTFRLGLFGLDKLTDIDGTVERFEKALDEVLAK", "protein production": "not failed"}, {"sequence": "MTALTPLQRLWLTETVRLREEHAGPLEDQEANRLARNQGGDLATRIQNRALWLAQRDGLHSALLHWHQGARMALLALSVLAVISGAGLAFSALGSTQQPVNVFWALGSLLGINLILLLSWLAGLLFAGEHGASLGRLWLWLSEKFSRDAKAAQLPPALLLLLQRRKLNRWALGSLINGLWCLALFSAVVMLLLLLTTHRYSFVWESTLLGSDAFVAITNTLSALPRGLGFGAPSVASIQASTRDVYNTELIRQSWAIWLVVLVTIYGVLPRLLLMLFCRWRWKHGQARLQLDLNLPGYAQLRERLMPSSERLGVNDAAPEQLHRVEGGVSAQDSSGALLVAIELDNQRPWPPQLPESIKDAGILDSRESRSRLLEQMSRFPPARLVIACDPRRSPDRGSLGLIAELARNASATRVWLLQAPPGQALDADRLGDWHSALHKLQLPFADCAPLDWLENGHD", "protein production": "failed"}, {"sequence": "MTARDDETIAFYSGHATAYTSRGQAPDRPHLETFLARLRAGAKILELGCGGGQDSEYMLSAGFDVHPTDGTPDIAKAAQARLGIPVRTLLFENIEDAALYDAVWANACLLHVPRLALPGIIGRIHTALKPGGVFYASFKAGEVEGRDTFGRYYNYPSKAWLEETYGQFAWTEVEIEARQGSGYDKLPTDWLHVTATKALEHHHHHH", "protein production": "not failed"}, {"sequence": "MTARELLKIVVVGHVDHGKSTIIGRLLYDTKSVPEAAIERVKRISKEKGRPFEYAYLLDALEEEQKQGITIDTTQIKFSTPKRDYLIIDAPGHKEFLKNMVSGAANAEAALLVIDAAEGVQEQSKRHAYILSLLGIQKVYVIVNKMDMIEFSEKKFKEIKYEISTFLSKLNVYPQKYIPVSGFLGENIARKSDKMPWYKGETLLQALDLFEKDKELEDRPLRFPIQDVYKFDHRRVIAGRLESGRLKVGDEIKILPEGKVSKVKSIEFWPENNKKDEVVAGMSIGITIEDEFFNKRGEVIVHKNDNTLYVSDTFRANLFWLGKRNLVKNKTYKLKLVTQETECEIVSIDKVIDATTLETVENALEVRTNDVAEVTIKTREKICFDEFKVNPTTGRFVLVDEYDVSGGGIISGLANLKEEATKFVKDDKEMIVHCFDEYYYSLSEGLIRKHSKYKRTFKVGDAVPIEGETYSYPESFDVIDINGKLVAKVRKGQLSDLVDIDQYIYSELPIITADGFYLKVNSIDEFKDFKNELVQLQKNDNFHLAMFANKWYDISANRSFKFTV", "protein production": "failed"}, {"sequence": "MTARPDSSGASSRHDRLQRHPTPNARNSLWRWTDAKHPLRVALNYVVIVLARISPSLHAKNWLLARIGVTVGDGVAWGLESTPDVFWPELVTVGDDAIIGYDATLLCHEFLHDEYRTGAVVVEDRAMIGAGAVVLPGVTIGADAQVAANSLVTADVPPGETVAGVPAAPTGD", "protein production": "failed"}, {"sequence": "MTARSNSSSSGTSSNKRPRTSGSSPSSKSRRGSGSGPAGRSRKTTSAVSYPTNSARRASETSEERTGSAFRAVGSGLGTLVSATAHGVGSVTRAVARTLHREHDDEEFDAVDDAFSSEETVVTNRKRKPSRMTKTKKNLFDDDIEDQHDDFDEEAGLGRFTLALSDESVDSIGLILIALAFIVGASVWFDIAGPIGAAIAAGVHFVIGAGALILPLALVAIAIALMLGKLPEPDHQPRLVLGTSVIAISMLGLIHLFAGDPADWQGRTHAGGIVGAYSGGMIARGFSVYLAIPLLVLVIIYGALRINNVTVKELFEAIQDTVQGLRDDSEDEDDPLYADADAEIEARSRGEKLHRPQPRREKPRPAPERRRMSAPLVDDVDEDVVSRPLFDDPSTAQSQKSSVETQRAARDVSETDEFPAVDEPTVVVPRKPSAPRMSLPQTPVTDVEAAADVVAAGRKAVQDAVKARESHNVGAALAPSTPAQPYEAPESHYAVPSTQLLIPGKEAKTHSEANDRMIEAISDVFAEFKVDAHVTGFSRGPTVTRYEVELGPGVKVSKITNLQSNLAYAVATDNVRLLTPIPGKSAVGIEVPNTDREMVRLGDVLNSESVHSDHDPMLIGLGKDIEGDFVAHSVQKMPHLLVAGSTGSGKSAFVNSLLVSLLTRATPEDVRLILVDPKMVELTPYEGIPHLITPIITQPKKAAAALQWLVEEMEQRYMDMKSTRVRHIKDFNRKVKSGEIQAPLGSQREYHPYPYIVCVVDELADLMMTAPKEIEDSIVRITQKARAAGIHLVLATQRPSVDVVTGLIKTNVPSRLAFATSSLTDSRVILDQAGAEKLIGMGDGLFIPQGGRPQRIQGAFVTDEEIQAVVDAAKAQGEPNYTEGVTEDKAAEAKKDIDADIGNDLEDLLQAVELVVTAQLGSTSMLQRKLRIGFAKAGRLMDLMETRGIVGPSEGSKAREVLVKPEELETTLWMIKGAKPEDAPKEDDWQSADSGVSDASDPSHGERAAYNPSSNAF", "protein production": "failed"}, {"sequence": "MTASNPTILALDFDGVICDGLIEYFEVAWRTYCQIWSPAENTPPDDLALRFYRLRPVIETGWEMPVLIKALVDGNSDDQILQEWTSITPKILLDDKLQAKEIATKLDGLRDEWIANDLDGWLSLHRFYQGVIEKLKIAVASEVKLYIVTTKEGRFVEQLLHQEGVDLPRDAIFGKEVKRPKYEIIRELIQAADHEPVSLWFVEDRIKTLQLVQQQSDLEDVKLFLADWGYNTQSERKAAQSDPRIQLLSLSQFAKDFPGWV", "protein production": "failed"}, {"sequence": "MTASPLLTAFLPLALGIIMLGLGLSLTLADFARVVKYPKPVVVGLVCQILLLPLVCFLIANGFGLESALAVGLMLLAASPGGTTANLFSHLAHGDVALNITLTAVNSLIAILTMPLLVNLSLSWFMASDQAIPLQFAKVMQVFAIVLLPVALGMLIRHFAPAFAARMEKPMKLVAALFLAFTIVLALAKDWQTVVEYAPVVGLAALLFNLLSLTVGYWVPRLLNISKRQAIAIGMEIGIHNGTLAIALALSPSLLNNATMAVPAALYSLIMFFTAAGFGWWVSRGHVAAEPKGETVN", "protein production": "failed"}, {"sequence": "MTATPGTTVPAPIMQTTDNSLTWLLQNLLDRTPGTRHALVLSRDGLRLCWTEHLTLDRADQLAAICSGIQALAQGASVEFGNGTGGVRHSMTEFHGGLLFIVEAGEGAHLAVVAVEDADPGVVGHQMTELVEQIGEHLRAEPRHAVPGGSSS", "protein production": "failed"}, {"sequence": "MTAYDLKLKCVCDYIQQHLDETLSLQQLSEVAGLSRFHFHRIFYAHLGMNIMKYTQMLRLKRASFQLVFKPEVKVIEIALDAGFDSPEAFARAFKRSFDQTPSAFRVEPNWQNWHRKFVYFTPESELKMNVTIIERPVEKIAYISHQGSPEKVFETAAKFIEWRKRTGLSPVKTSATYGIPFSDPEQTPEKEFRFDIAGSITKSIDQNNEGIEMSEIPAGRYAMVRHWGSHDYIRDSVYFLFRNWLPAQQEEAGDYPVFFHYHNFVHEVKEADLVTDIYLLLK", "protein production": "failed"}, {"sequence": "MTCAYRREIHHAHVAIRDWLAGDSRADALDALMARFAEDFSMVTPHGVVLDKTALGELFRSKGGTRPGLRIEIDGESLLASGVDGATLAYREIQSDAAGRSERLSTVVLHRDDEGRLYWRHLQETFCG", "protein production": "not failed"}, {"sequence": "MTCDQIPGRMRVKAERTPFRCPTPVKRKKAMSSAMPQPETTPILACTVSRDVQNFDLLIEDMEAAMGESWGDLGFAEALAFFGQPESESLEFIALAIDTEDEDNLVLMGEIITQAKSRGIKVILIAEDVTPASLHQLLRKGADEFVPYPLPERELQSAIDRMSKPEPEQAQTHHNTAHLNKGAAREGALIVVHGLAGGTGSTTMAVNLAWELANIGGEDAPSVCLMDLDLQHGSVSTYLDLPRREAVFEMLSETQSMDEEVFGQALLSFEDKLQVLTAPSDMVPLDILSPEDIQRVIEMARAHFDYVIVDMPKTLVQWSETILQAAHVYFAMIELDMRSAQNALRMKRALQSEDLPFNKLRFALNKAPKFTDLSGKSRVKRMGESLGISIDLQLPDGGKQVTQGADHGLPLATSAPKNPLRREIAKLAQSLHELGRSDAKAA", "protein production": "failed"}, {"sequence": "MTCEGRRTMTQPISLGHRMSLIDLYDLRMPQRTGTYVLHEENLAIIETGPSPSVPHLLAGLKALHIDPADIRYIIVTHIHLDHAGGVGVLLEHCPNATVIVHPKGKRHLADPSRLIAGAKAVYGEQFDALFDPIVPVPEERLLVKEDGETLVLSAERTLTFYDTPGHANHHFSIYDSYSGGVFTGDTIGVFYPQLQEAGLAFCLPSTSPNQFNPEAMKQSAERLEKLNPTRIYFGHFGALDQPEEAFRQLRFWLPKFVAAGKEVIARHPEAPAAEQAKAVTKLLHNDITAFLNECSIPASSPVYKVIELDLQVCAMGIIDYWRKQRLEHHHHHH", "protein production": "not failed"}, {"sequence": "MTDAPLGRSAVYTILTTGYVGSTGPGVAATVSYVADGGRHVVFDPGMVASRDHILGPLAELGLGPDDITDVVLSHHHPDNTMNVGLFGRATVHDHKVEYLGDQWRNRDAEGYELTPSLRLIRTPGHSLEDITLLAGTDTGVVAFAGDLWWHSDGPADDPVAPDREVLRASRLRVLAAADLIVPGHGSPFKADITAPRLEHHHHHH", "protein production": "not failed"}, {"sequence": "MTDATAEQSVTADADDKPEPYNGLPGAFPYAFRATDSLLFKAYVPVALLLSVAITLVFSFGLITQLAETGSVRGGTFTFSRSFFLFVGLLLVAPLLAPVLSVARRHRRTASSVAYDRALALSAFLFIGSIYLALLTSAPAELREPTQSAVVGFFYSLPPIAGVVPPMLATLGIYLTHRLLK", "protein production": "failed"}, {"sequence": "MTDDLLKPNRPHPLFKLATELGPLLVFFIVNAKFHLFAATGAFMVAVVAAVIASYVVTRHVPVMALVTAVVVLVFGTLTLVLHDETFIKMKPTIVYSLFGAVLAGGLLFGRSFIAIMFDQVFNLTAAGWRKLTLRWALFFFAMALLNEAVWRTQSTDFWVNFKVFGVVPLTMLFALLQMPLTKRYAAEPATLEQSAADEGDVSGR", "protein production": "not failed"}, {"sequence": "MTDESDALCATEKEIMHATHRALVNSGYAELSISRISDELDKAKSTIYHYYDSKDALLLRFLRFTVDRFEATINTSIGDNPKEDLNHIISTLLPCQLPEEKRQLHSVLVTLSPQALERAVFREQFTEIDTRLATIIEKTVRRGVDADVFRDVDPTHAAEHILATIKGTMYSRLTTNREAATAAAKASLFSYIDSHLIS", "protein production": "failed"}, {"sequence": "MTDEVSVLFVDFLLEWLEMMRTRVRETTYASYNSGIRQSIIPYFMDKKLTLTDIEENPKYLQDFYQHELSKGLSPNSVLRRHANIRKALQHAFHLGLIKSNPADRIERPKKQDYTALEHHHHHH", "protein production": "not failed"}, {"sequence": "MTDGEAVSAAAGPGAEGPPGPVGHWAPGSHILWRYRENGGPHVHIARPVTVVRDDADLLAVWLAPGTECVKPVLADGTPVHLEPLATRYTKPRTVQRDQWFGTGVLKLARPGEAWSVWLFWDPGWRFKNWYVNLERPLTRWEGGVDSEDHFLDISVHPDRTWHWRDEDEFAQALRDGLMDPASAGRVRRAGRSAVAEIRAWGSPFADGWEHWRPDPAWPVPSLPGDWDRTPAHVSS", "protein production": "not failed"}]}]}
